Results on 15 molecules are retold here after patent US20180291110A1 (Hoffmann-La Roche, published 2018).

Experiment [1] has as its target T1, human transferrin receptor (recombinant, for surface plasmon resonance) (human, UniProt P02786 89-760).
T1 construct: also called huTfR; human transferrin receptor-biotinylated
Description: SPR 25C.

The target in experiment [2] is T2, Her2 ECD (amino acids 1 to 629 of matured HER2 with C-terminal avi-tag and His-tag) (human, UniProt P04626 23-652).
T2 construct: also called purified Her2
Description: SPR, Ab captured, Her2 analyte.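 Further: ProteOn XPR36 SPR, rate constants from simultaneous fit of association and dissociation sensorgrams to a 1:1 Langmuir model, buffer-channel referenced, KD taken as koff/kon.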

As a reminder, the koff is the rate constant with which the complex falls apart. For orientation: Kd means the constant that tells how readily two partners part at equilibrium. A high value points to lower affinity. Broadly, the kon is a measure of how fast the partners come together. A higher kon goes with fast association.

T1 sequence (P02786 89-760 limits assumed): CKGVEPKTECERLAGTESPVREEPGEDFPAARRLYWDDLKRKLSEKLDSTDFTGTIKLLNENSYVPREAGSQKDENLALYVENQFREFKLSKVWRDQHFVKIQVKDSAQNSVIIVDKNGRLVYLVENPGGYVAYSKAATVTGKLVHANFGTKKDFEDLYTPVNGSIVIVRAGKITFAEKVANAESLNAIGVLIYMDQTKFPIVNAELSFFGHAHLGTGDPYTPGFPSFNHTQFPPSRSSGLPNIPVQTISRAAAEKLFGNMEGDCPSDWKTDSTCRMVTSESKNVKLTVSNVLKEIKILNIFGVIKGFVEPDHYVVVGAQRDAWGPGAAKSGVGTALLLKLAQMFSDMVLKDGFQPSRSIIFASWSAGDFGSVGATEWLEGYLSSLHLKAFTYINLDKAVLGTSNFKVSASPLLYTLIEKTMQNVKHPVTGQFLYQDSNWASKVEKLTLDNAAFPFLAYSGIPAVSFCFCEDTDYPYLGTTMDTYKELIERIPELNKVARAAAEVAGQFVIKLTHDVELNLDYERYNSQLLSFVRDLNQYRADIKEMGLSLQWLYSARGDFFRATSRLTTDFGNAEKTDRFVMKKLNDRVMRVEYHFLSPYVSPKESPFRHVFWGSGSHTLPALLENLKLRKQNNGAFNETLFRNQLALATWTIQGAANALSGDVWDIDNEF

B1: 2/99 VH8/VL17 (antibody, V domains shown)
VH: QQLVETGGGLIQPGGSLRLSCAASGFSLSSYAMSWVRQAPGKGLEWIGYIWSGGSTDYASWAKGRFTISKTSTTLYLQMNSLRAEDTAVYYCARRYGTSYPDYGDANGFDPWGQGTLVTVSS
VL: AIQLTQSPSSLSASVGDRVTITCRASQSISSYLAWYQQKPGKAPKLLIYRASTLASGVPSRFSGSGSGTDFTLTISSLQPEDFATYYCQQTYSSSNVDNTFGGGTKVEIK
B1: the koff in experiment [1] was determined as 0.00112 s⁻¹.

B2: 2/99 VH20/VL17 (antibody, V domains shown)
VH: QSMQESGPGLVKPSQTLSLTCTVSGFSLSSYAMSWIRQHPGKGLEWIGYIWSGGSTDYAPSLKSRVTISVDTSKNQVSLKLSSVTAADTAVYYCARRYGTSYPDYGDANGFDPWGQGTLVTVSS
VL: AIQLTQSPSSLSASVGDRVTITCRASQSISSYLAWYQQKPGKAPKLLIYRASTLASGVPSRFSGSGSGTDFTLTISSLQPEDFATYYCQQTYSSSNVDNTFGGGTKVEIK
In the case of B2, in experiment [1], the koff is 0.00457 s⁻¹.

B3: 2/99 VH11/VL17 (antibody, V domains shown)
VH: QQLLESGGGLVQPGGSLRLSCAASGFSLSSYAMSWVRQAPGKGLEWVGYIWSGGSTDYADSVKGRFTISRDNSKNTLYLQMNSLRAEDTAVYYCARRYGTSYPDYGDANGFDPWGQGTLVTVSS
VL: AIQLTQSPSSLSASVGDRVTITCRASQSISSYLAWYQQKPGKAPKLLIYRASTLASGVPSRFSGSGSGTDFTLTISSLQPEDFATYYCQQTYSSSNVDNTFGGGTKVEIK
As to B3, in experiment [1], the koff is 0.00755 s⁻¹.

B4: 2/99 VH17/VL17 (antibody, V domains shown)
VH: QQLQESGPGLVKPSETLSLTCTVSGFSLSSYAMSWVRQPPGKGLEWIGYIWSGGSTDYNPSLKSRVTISKDTSKNQVSLKLSSVTAADTAVYYCARRYGTSYPDYGDANGFDPWGPGTLVTVSS
VL: AIQLTQSPSSLSASVGDRVTITCRASQSISSYLAWYQQKPGKAPKLLIYRASTLASGVPSRFSGSGSGTDFTLTISSLQPEDFATYYCQQTYSSSNVDNTFGGGTKVEIK
With B4, the koff in experiment [1] is 0.000988 s⁻¹.

B5: 2/99 VH22/VL17 (antibody, V domains shown)
VH: QSMQESGPGLVKPSQTLSLTCTVSGFSLSSYAMSWVRQHPGKGLEWIGYIWSGGSTDYASWAKSRVTISVDTSKNQVSLKLSSVTAADTAVYYCARRYGTSYPDYGDANGFDPWGQGTLVTVSS
VL: AIQLTQSPSSLSASVGDRVTITCRASQSISSYLAWYQQKPGKAPKLLIYRASTLASGVPSRFSGSGSGTDFTLTISSLQPEDFATYYCQQTYSSSNVDNTFGGGTKVEIK
For B5, the koff in experiment [1] turned out to be 0.000938 s⁻¹.

B6: 2/99 VH19/VL17 (antibody, V domains shown)
VH: QSMQESGPGLVKPSQTLSLTCTVSGFSLSSYAMSWIRQHPGKGLEWIGYIWSGGSTDYAPSLKSRVTISVDTSKNQFSLKLSSVTAADTAVYYCARRYGTSYPDYGDANGFDPWGQGTLVTVSS
VL: AIQLTQSPSSLSASVGDRVTITCRASQSISSYLAWYQQKPGKAPKLLIYRASTLASGVPSRFSGSGSGTDFTLTISSLQPEDFATYYCQQTYSSSNVDNTFGGGTKVEIK
Turning to B6, the koff in experiment [1] worked out at 0.001 s⁻¹.

B7: 2/99 VH15/VL17 (antibody, V domains shown)
VH: QQLQESGPGLVKPSETLSLTCTVSGFSLSSYAMSWVRQPPGKGLEWIGYIWSGGSTDYNPSLKSRVTISVDTSKNQVSLKLSSVTAADTAVYYCARRYGTSYPDYGDANGFDPWGQGTLVTVSS
VL: AIQLTQSPSSLSASVGDRVTITCRASQSISSYLAWYQQKPGKAPKLLIYRASTLASGVPSRFSGSGSGTDFTLTISSLQPEDFATYYCQQTYSSSNVDNTFGGGTKVEIK
B7: the koff in experiment [1] worked out at 0.00169 s⁻¹.

B8: 2/99 VH9/VL17 (antibody, V domains shown)
VH: QQLLESGGGLVQPGGSLRLSCAASGFTFSSYAMSWVRQAPGKGLEWVGYIWSGGSTDYADSVKGRFTISRDNSKNTLYLQMNSLRAEDTAVYYCAKRYGTSYPDYGDANGFDPWGQGTLVTVSS
VL: AIQLTQSPSSLSASVGDRVTITCRASQSISSYLAWYQQKPGKAPKLLIYRASTLASGVPSRFSGSGSGTDFTLTISSLQPEDFATYYCQQTYSSSNVDNTFGGGTKVEIK
B8: the koff in experiment [1] was determined as 0.00425 s⁻¹.

B9: 2/99 VH13/VL17 (antibody, V domains shown)
VH: QVQLQESGPGLVKPSETLSLTCTVSGFSLSSYAMSWIRQPPGKGLEWIGYIWSGGSTDYNPSLKSRVTISVDTSKNQVSLKLSSVTAADTAVYYCARRYGTSYPDYGDANGFDPWGQGTLVTVSS
VL: AIQLTQSPSSLSASVGDRVTITCRASQSISSYLAWYQQKPGKAPKLLIYRASTLASGVPSRFSGSGSGTDFTLTISSLQPEDFATYYCQQTYSSSNVDNTFGGGTKVEIK
For the molecule B9, the koff in experiment [1] was found to be 0.00339 s⁻¹.

B10: 2/99 VH21/VL17 (antibody, V domains shown)
VH: QSMQESGPGLVKPSQTLSLTCTVSGFSLSSYAMSWIRQHPGKGLEWIGYIWSGGSTDYASWAKSRVTISVDTSKNQVSLKLSSVTAADTAVYYCARRYGTSYPDYGDANGFDPWGQGTLVTVSS
VL: AIQLTQSPSSLSASVGDRVTITCRASQSISSYLAWYQQKPGKAPKLLIYRASTLASGVPSRFSGSGSGTDFTLTISSLQPEDFATYYCQQTYSSSNVDNTFGGGTKVEIK
Regarding B10, the koff in experiment [1] was 0.000997 s⁻¹.

B11: 2/99 VH12/VL17 (antibody, V domains shown)
VH: QVQLQESGPGLVKPSETLSLTCTVSGFSLSSYAMSWIRQPPGKGLEWIGYIWSGGSTDYNPSLKSRVTISVDTSKNQFSLKLSSVTAADTAVYYCARRYGTSYPDYGDANGFDPWGQGTLVTVSS
VL: AIQLTQSPSSLSASVGDRVTITCRASQSISSYLAWYQQKPGKAPKLLIYRASTLASGVPSRFSGSGSGTDFTLTISSLQPEDFATYYCQQTYSSSNVDNTFGGGTKVEIK
As to B11, the koff in experiment [1] stood at 0.00727 s⁻¹.

B12: 2/99 VH18/VL17 (antibody, V domains shown)
VH: QVQLQESGPGLVKPSQTLSLTCTVSGFSLSSYAMSWIRQHPGKGLEWIGYIWSGGSTDYAPSLKSRVTISVDTSKNQFSLKLSSVTAADTAVYYCARRYGTSYPDYGDANGFDPWGQGTLVTVSS
VL: AIQLTQSPSSLSASVGDRVTITCRASQSISSYLAWYQQKPGKAPKLLIYRASTLASGVPSRFSGSGSGTDFTLTISSLQPEDFATYYCQQTYSSSNVDNTFGGGTKVEIK
With B12, the koff in experiment [1] was 0.0053 s⁻¹.

B13: 2/99 VH16/VL17 (antibody, V domains shown)
VH: QQLQESGPGLVKPSETLSLTCTVSGFSLSSYAMSWVRQPPGKGLEWIGYIWSGGSTDYNPSLKSRVTISVDTSKNQVSLKLSSVTAADTAVYYCARRYGTSYPDYGDANGFDPWGPGTLVTVSS
VL: AIQLTQSPSSLSASVGDRVTITCRASQSISSYLAWYQQKPGKAPKLLIYRASTLASGVPSRFSGSGSGTDFTLTISSLQPEDFATYYCQQTYSSSNVDNTFGGGTKVEIK
B13: the koff in experiment [1] amounted to 0.00166 s⁻¹.

B14: Pertuzumab HC x Pertuzumab (Tras.L3) G32A LC (antibody, V domains shown)
VH: EVQLVESGGGLVQPGGSLRLSCAASGFTFTDYTMDWVRQAPGKGLEWVADVNPNSGGSIYNQRFKGRFTLSVDRSKNTLYLQMNSLRAEDTAVYYCARNLGPSFYFDYWGQGTLVTVSS
VL: DIQMTQSPSSLSASVGDRVTITCKASQDVSIAVAWYQQKPGKAPKLLIYSASYRYTGVPSRFSGSGSGTDFTLTISSLQPEDFATYYCQQHYTTPPTFGQGTKVEIK
In experiment [2], B14 yielded a Kd of 3.66 nM, a dissociation rate constant (koff) of 0.00187 s⁻¹ and a kon of 511000 M⁻¹ s⁻¹.

B15: Pertuzumab HC x Pertuzumab (Tras.L3) G66R LC (antibody, V domains shown)
VH: EVQLVESGGGLVQPGGSLRLSCAASGFTFTDYTMDWVRQAPGKGLEWVADVNPNSGGSIYNQRFKGRFTLSVDRSKNTLYLQMNSLRAEDTAVYYCARNLGPSFYFDYWGQGTLVTVSS
VL: DIQMTQSPSSLSASVGDRVTITCKASQDVSIGVAWYQQKPGKAPKLLIYSASYRYTGVPSRFSGSRSGTDFTLTISSLQPEDFATYYCQQHYTTPPTFGQGTKVEIK
In experiment [2], B15 came in with a Kd of 6.91 nM, a koff of 0.00247 s⁻¹ and a kon of 358000 M⁻¹ s⁻¹.
